{"source": "paper PMC11089518", "about": "“Development of Prolinol Containing Inhibitors of Hypoxanthine–Guanine–Xanthine Phosphoribosyltransferase: Rational Structure-Based Drug Design” (Journal of Medicinal Chemistry, 2024)", "key": {"[1]": {"target": "the molecule itself", "assay": "crystal structure; human HGPRT (10 mg/mL, 0.4 mM) with inhibitor 1 (0.3 M calcium acetate, 20% PEG 3350) or 5 (0.3 M sodium acetate, 17.5% PEG 3350), hanging drop; oligomer as refined in the asymmetric unit"}, "[2]": {"target": "the molecule itself", "assay": "crystal structure; TbrHGPRT1 (8 mg/mL, 0.3 mM) with inhibitor 4 or 5, 0.2 M MgCl2, 0.1 M Bis-Tris pH 5.0, 20% PEG 3350, hanging drop; oligomer as refined in the asymmetric unit"}}, "data": [{"protein": "human hypoxanthine-guanine phosphoribosyltransferase (human HGPRT) (enzyme, hypoxanthine-guanine phosphoribosyltransferase, human; source: expressed and purified to homogeneity as previously described) MATRSPGVVISDDEPGYDLDLFCIPNHYAEDLERVFIPHGLIMDRTERLARDVMKEMGGHHIVALCVLKGGYKFFADLLDYIKALNRNSDRSIPMTVDFIRLKSYCNDQSTGDIKVIGGDDLSTLTGKNVLIVEDIIDTGKTMQTLLSLVRQYNPKMVKVASLLVKRTPRSVGYKPDFVGFEIPDKFVVGYALDYNEYFRDLNHVCVISETGKAKYKA", "values": [{"measurement": "stoichiometry N", "setting": "[1]", "result": 4}]}, {"protein": "Trypanosoma brucei hypoxanthine-guanine phosphoribosyltransferase isoform 1 (TBrHGPRT1) (enzyme, UniProt Q07010 1-210, looked up, hypoxanthine-guanine phosphoribosyltransferase isoform HGPRT1 (cytoplasmic) of Trypanosoma brucei; source: expressed and purified to homogeneity as previously described) MEPACKYDFATSVLFTEAELHTRMRGVAQRIADDYSNCNLKPLENPLVIVSVLKGSFVFTADMVRILGDFGVPTRVEFLRASSYGHDTKSCGRVDVKADGLCDIRGKHVLVLEDILDTALTLREVVDSLKKSEPASIKTLVAIDKPGGRKIPFTAEYVVADVPNVFVVGYGLDYDQSYREVRDVVILKPSVYETWGKELERRKAAGEAKR", "values": [{"measurement": "stoichiometry N", "setting": "[2]", "result": 2}]}]}
